Test results published in patent US20200071424A1 (SHIONOGI, published 2020).
Positions count from the first letter of the chain named.

T1: human [1-305]-mouse chimeric EL (human; mouse, UniProt Q9WVG5 306-500)
T1 sequence: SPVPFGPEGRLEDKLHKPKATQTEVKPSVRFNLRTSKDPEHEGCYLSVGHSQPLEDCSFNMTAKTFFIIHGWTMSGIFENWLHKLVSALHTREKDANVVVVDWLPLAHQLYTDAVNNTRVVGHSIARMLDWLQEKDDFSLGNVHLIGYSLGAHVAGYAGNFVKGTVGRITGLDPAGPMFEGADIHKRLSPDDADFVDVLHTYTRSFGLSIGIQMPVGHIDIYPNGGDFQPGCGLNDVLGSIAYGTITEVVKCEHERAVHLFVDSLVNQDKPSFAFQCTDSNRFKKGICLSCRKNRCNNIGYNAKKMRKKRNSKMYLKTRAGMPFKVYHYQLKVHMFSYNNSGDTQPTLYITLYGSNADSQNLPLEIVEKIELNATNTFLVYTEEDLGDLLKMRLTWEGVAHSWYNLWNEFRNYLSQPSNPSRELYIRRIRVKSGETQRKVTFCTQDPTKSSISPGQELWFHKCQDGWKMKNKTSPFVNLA

T2: mouse EL (mouse, UniProt Q9WVG5 21-500)
T2 construct: Heparin extract
T2 sequence (looked up): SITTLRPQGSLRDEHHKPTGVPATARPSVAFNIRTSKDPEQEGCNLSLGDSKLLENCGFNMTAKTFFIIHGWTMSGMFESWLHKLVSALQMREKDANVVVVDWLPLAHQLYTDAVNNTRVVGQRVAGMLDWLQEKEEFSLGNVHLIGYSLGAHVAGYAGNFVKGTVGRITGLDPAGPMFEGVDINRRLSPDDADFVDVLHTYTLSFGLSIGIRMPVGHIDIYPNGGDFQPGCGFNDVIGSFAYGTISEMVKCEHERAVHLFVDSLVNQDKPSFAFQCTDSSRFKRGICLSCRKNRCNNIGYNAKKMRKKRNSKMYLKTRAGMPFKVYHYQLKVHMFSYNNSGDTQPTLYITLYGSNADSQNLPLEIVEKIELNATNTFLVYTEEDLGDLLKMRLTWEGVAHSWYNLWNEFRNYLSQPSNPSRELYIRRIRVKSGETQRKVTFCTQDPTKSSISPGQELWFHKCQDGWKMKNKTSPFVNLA

T3: human [1-157]-mouse chimeric EL (human; mouse, UniProt Q9WVG5 158-500)
T3 construct: Heparin extract, detected by an anti-C2-tag antibody
T3 sequence: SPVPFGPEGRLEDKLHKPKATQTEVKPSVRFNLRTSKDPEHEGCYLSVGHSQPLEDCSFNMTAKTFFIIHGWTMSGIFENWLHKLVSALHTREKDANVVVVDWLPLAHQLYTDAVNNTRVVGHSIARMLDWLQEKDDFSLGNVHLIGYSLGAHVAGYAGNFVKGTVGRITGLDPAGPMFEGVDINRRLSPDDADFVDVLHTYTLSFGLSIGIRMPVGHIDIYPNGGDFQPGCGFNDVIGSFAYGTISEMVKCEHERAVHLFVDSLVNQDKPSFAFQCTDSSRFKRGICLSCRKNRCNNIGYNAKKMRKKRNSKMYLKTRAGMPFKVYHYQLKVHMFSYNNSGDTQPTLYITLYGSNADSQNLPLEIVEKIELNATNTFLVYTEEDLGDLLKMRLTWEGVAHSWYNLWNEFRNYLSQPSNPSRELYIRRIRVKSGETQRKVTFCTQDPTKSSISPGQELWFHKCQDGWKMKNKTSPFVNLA

B1: 13B3 (antibody, mouse IgG2a, V domains shown)
VH: EVQLQQSGPELLKPGASVKISCKASGYTFTEYTMHWVKQSHGKSLEWIGSINPYYGGTSYNEKFKDKATLTVDKSSNTAYMEFRSLTSEDCAVYYCARYGNYVGYFDYWGQGTTLTVSS
VL: ENVLTQSPAIMSASLGEKVTMSCRASSSVHYMYWYQQKSDASPKLWIYYTSNLAPGVPDRFSGSGSGNSYSLTISSMEGEDAATYYCQQFTSSPYTFGGGTKLEIK
notes: mouse IgG2a from hybridoma; also called 13B3 (mouse mAb)
B2: 55A1 (antibody, mouse IgG2a, V domains shown)
VH: QIHLVQSGPELKKPGETVKISCKASGYTFTNYGMNWVKQAPGKGLKWMGWINTYSGVPTYAGDFKGRFAFSLETSASTAYLQINNLKNEDTATYFCARRGYYGRRYFDVWGTGTTVTVSS
VL: DIVLTQSPASLAVSLGQRATISCKASQSVDYDVDSYMHWYQQKPGQPPKLLIYAASNLASGIPARFSGGGSGTDFTLNIHPVEEEDVATYYCQQTIEDPPTFGGGTKLEIK
notes: mouse IgG2a from hybridoma; also called 55A1 (mouse mAb)
B3: 53A11 (antibody, mouse IgG2a, V domains shown)
VH: EVQLQQSGPELLKPGASVKISCKASGYTFTDYTMHWVKQSHGKSLEWIGGINPYYGGTTYNEKFKDKATLTVDKSSSTAYMELRSLTSEDSAVYYCAKGDYYGGSYNYWGQGTTLTVSS
VL: DIVLTQSLATLSVTPGDSVSLSCRASQDISNSLHWYQQKSHESPRLLIKYASQSISGIPSRFSGSGSGTDFTLSINSVETEDFGMYFCQQSNSWPYTFGGGTKLEIK
notes: mouse IgG2a from hybridoma; also called 53A11 (mouse mAb)
B4: 23H8 (antibody, mouse IgG2a, V domains shown)
VH: EVQLQQSGPELLKPGASVKISCKASGYTFTDNTIHWVKQSHGKSLEWIGHINPYYGGTNNNEKFKDKATLTVDKSSSTAYMELRSLTSEDSAIYYCARKGIYYSSPFDYWGQGTTLTVSS
VL: DIQMTQTTSSLSASLGDRVTISCRASQDINNYLNWYQQKPDGTVKLLISYTSKLHSGVPSRFSGSGSGTDYSLTISNLEREDFATYFCQQGNTLPFTFGSGTNLEIK
notes: mouse IgG2a from hybridoma; also called 23H8 (mouse mAb)
B5: 14A1 (antibody, mouse IgG1, V domains shown)
VH: QIQLVQSGPELKKPGETVKISCKASGYTFTNYGMNWVKQAPGKGLKWMGWINTYSGVPTYADDFKGRFAFSLETSASTAYLQINNFKNEDTATYFCARFSYYGRHYFDYWGQGTALTASS
VL: DIVLTQSPASLAVSLGQRATISCKASQSVDYDGDSYMNWYQQKPGQPPKLLIYAASNLKSGIPARFSGSGSGTDFTLNIHPVEEEDAATYYCQQTTDDPPWTFGGGTKLEIK
notes: mouse IgG1 from hybridoma
B6: 7D4 (antibody, mouse IgG1, V domains shown)
VH: B5 VH with G44D, F86L, A115T, A118V
VL: B5 VL with K49Q, K59G, Q93H, T95S
notes: mouse IgG1 from hybridoma
B7: 2D5 (antibody, mouse IgG2a, V domains shown)
VH: B5 VH with A61T, Y80F, F86L, A115T, A118V
VL: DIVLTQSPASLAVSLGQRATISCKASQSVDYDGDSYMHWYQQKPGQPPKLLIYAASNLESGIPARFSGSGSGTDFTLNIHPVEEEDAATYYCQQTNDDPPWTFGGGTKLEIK
notes: mouse IgG2a from hybridoma

Each binder was assayed against T1, human [1-305]-mouse chimeric EL (assay: cell-based or functional assay).

Row | Neutralizing activity IC50 | Binder
1 | 4.1 nM | B1
2 | 1.1 nM | B2
3 | 2.6 nM | B3
4 | 1.7 nM | B4

What follows are binders tested against cynomolgus monkey EL (cynomolgus monkey) (assay: cell-based or functional assay).

Row | Neutralizing activity IC50 | Binder
5 | 3.1 nM | B1
6 | 1.3 nM | B2
7 | 2.7 nM | B3
8 | 1.4 nM | B4

What follows are binders tested against T4, cynomolgus monkey EL (cynomolgus monkey) (assay: Biacore; EL captured by anti-C2-tag Ab; bivalent fit).
T4 construct: Heparin extract; also called cynomolgus EL; Cynomolgus EL
Experimental: (§1) The binding affinities of anti-EL antibodies were measured using Biacore. […] Then, anti-EL antibodies were added and the binding affinities were calculated by bivalent fitting of BIAevaluation software.

Row | Kd | koff | kon | Binder
9 | 8.7 nM | 0.00041 s⁻¹ | 47000 M⁻¹ s⁻¹ | B1
10 | 3.9 nM | 0.00081 s⁻¹ | 210000 M⁻¹ s⁻¹ | B5
11 | 1.9 nM | 0.00023 s⁻¹ | 120000 M⁻¹ s⁻¹ | B6
12 | 3.8 nM | 0.00028 s⁻¹ | 74000 M⁻¹ s⁻¹ | B7
13 | 1.7 nM | 0.00044 s⁻¹ | 250000 M⁻¹ s⁻¹ | B2
14 | 4.2 nM | 0.00038 s⁻¹ | 91000 M⁻¹ s⁻¹ | B3
15 | 6.1 nM | 0.00075 s⁻¹ | 120000 M⁻¹ s⁻¹ | B4

What follows are binders tested against T5, baboon EL (baboon) in the same assay as above.
T5 construct: Heparin extract
Experimental: as §1

Row | Kd | koff | kon | Binder
16 | 5.1 nM | 0.00031 s⁻¹ | 61000 M⁻¹ s⁻¹ | B1
17 | 3.3 nM | 0.00062 s⁻¹ | 190000 M⁻¹ s⁻¹ | B5
18 | 4.5 nM | 0.00035 s⁻¹ | 78000 M⁻¹ s⁻¹ | B6
19 | 2.2 nM | 0.00017 s⁻¹ | 77000 M⁻¹ s⁻¹ | B7
20 | 1.2 nM | 0.00042 s⁻¹ | 350000 M⁻¹ s⁻¹ | B2
21 | 1.6 nM | 0.00026 s⁻¹ | 170000 M⁻¹ s⁻¹ | B3
22 | 2.9 nM | 0.00044 s⁻¹ | 150000 M⁻¹ s⁻¹ | B4

The binders below were run against T1, human [1-305]-mouse chimeric EL in the same assay as above.
Experimental: as §1

Row | Kd | koff | kon | Binder
23 | 0.91 nM | 0.00014 s⁻¹ | 150000 M⁻¹ s⁻¹ | B1
24 | 0.5 nM | 0.0001 s⁻¹ | 210000 M⁻¹ s⁻¹ | B5
25 | 0.97 nM | 0.00011 s⁻¹ | 110000 M⁻¹ s⁻¹ | B6
26 | 1.1 nM | 9.3e-05 s⁻¹ | 85000 M⁻¹ s⁻¹ | B7
27 | 0.73 nM | 0.00014 s⁻¹ | 190000 M⁻¹ s⁻¹ | B2
28 | 0.63 nM | 0.00011 s⁻¹ | 180000 M⁻¹ s⁻¹ | B3
29 | 0.87 nM | 0.00011 s⁻¹ | 120000 M⁻¹ s⁻¹ | B4

These binders were tested against T4, cynomolgus monkey EL (assay: cell-based or functional assay).

Row | Neutralizing activity IC50 | Binder
30 | 1.7 nM | B1
31 | 3.1 nM | B5
32 | 2.1 nM | B6
33 | 3 nM | B7
34 | 1.5 nM | B2
35 | 1.9 nM | B3
36 | 2.7 nM | B4

Each binder was assayed against human-mouse chimeric EL (construct not specified) (assay: cell-based or functional assay).

Row | Neutralizing activity IC50 | Binder
37 | 4.1 nM | B1
38 | 5.8 nM | B5
39 | 3.7 nM | B6
40 | 2.7 nM | B7
41 | 1.1 nM | B2
42 | 2.3 nM | B3
43 | 1.7 nM | B4

What follows are binders tested against rabbit EL (rabbit) (assay: cell-based or functional assay).

Row | Neutralizing activity IC50 | Binder
44 | 13 nM | B1
45 | 67 nM | B4

What follows are binders tested against T5, baboon EL (assay: cell-based or functional assay).

Row | Neutralizing activity IC50 | Binder
46 | 2.6 nM | B1
47 | 2.7 nM | B5
48 | 2.6 nM | B6
49 | 2.9 nM | B7
50 | 2 nM | B2
51 | 2.4 nM | B3
52 | 3.2 nM | B4

The binders below were run against T4, cynomolgus monkey EL (assay: ELISA: antibody captured on anti-mouse IgG-Fc plate, EL heparin extract added, detection with biotin anti-C2-tag antibody and HRP-streptavidin, A450).
Experimental: (§2) Assay buffer containing 15 μl of anti-EL antibody was added to anti-mouse IgG-Fc antibody-immobilized microtiter plate, and incubated for 2 hr. […] After washing the wells three times with 90 μL of washing buffer, 15 μl of assay buffer containing biotin-labeled anti-C2-tag antibody and HRP-labeled Streptavidin were added to the wells and incubated at room temperature for 1 hr. After washing the wells three times with 90 μL of washing buffer, 15 μL of TMB+—Substrate—Chromogen (DAKO) was added and incubated at room temperature for 30 min and then 15 μL of 0.05 M H2SO₄ was added and absorbance at 450 nm was measured (FIG. 3A to 3K).

Row | EC50 (read off the curve) | Binder
53 | ~10 ng/mL | B1
54 | ~20 ng/mL | B5
55 | ~10 ng/mL | B6
56 | ~10 ng/mL | B7
57 | ~5 ng/mL | B2
58 | ~10 ng/mL | B3
59 | ~8 ng/mL | B4

What follows are binders tested against T2, mouse EL in the same assay as above.
Experimental: as §2

Row | binding result | Binder
60 | no binding (tested: about 330 ng/mL) | B1
61 | no binding (tested: about 330 ng/mL) | B5
62 | no binding (tested: about 330 ng/mL) | B6
63 | no binding (tested: about 330 ng/mL) | B7
64 | no binding (tested: about 330 ng/mL) | B2
65 | no binding (tested: about 330 ng/mL) | B3
66 | no binding (tested: about 330 ng/mL) | B4

Each binder was assayed against T3, human [1-157]-mouse chimeric EL in the same assay as above.
Experimental: as §2

Row | EC50 (read off the curve) | Binder
67 | ~4 ng/mL | B1
68 | ~7 ng/mL | B5
69 | ~6 ng/mL | B6
70 | ~8 ng/mL | B7
71 | ~4 ng/mL | B2
72 | ~6 ng/mL | B3
73 | ~4 ng/mL | B4

These binders were tested against T5, baboon EL in the same assay as above.
Experimental: as §2

Row | EC50 (read off the curve) | Binder
74 | ~20 ng/mL | B1
75 | ~9 ng/mL | B6
76 | ~20 ng/mL | B7
77 | ~10 ng/mL | B2
78 | ~20 ng/mL | B3
79 | ~20 ng/mL | B4
